Measured values from patent US20250340635A1 (HEFEI TG IMMUNOPHARMA, published 2025).

B1: human-murine chimeric 10D10 antibody (antibody, human IgG1, kappa, L234A L235A)
heavy: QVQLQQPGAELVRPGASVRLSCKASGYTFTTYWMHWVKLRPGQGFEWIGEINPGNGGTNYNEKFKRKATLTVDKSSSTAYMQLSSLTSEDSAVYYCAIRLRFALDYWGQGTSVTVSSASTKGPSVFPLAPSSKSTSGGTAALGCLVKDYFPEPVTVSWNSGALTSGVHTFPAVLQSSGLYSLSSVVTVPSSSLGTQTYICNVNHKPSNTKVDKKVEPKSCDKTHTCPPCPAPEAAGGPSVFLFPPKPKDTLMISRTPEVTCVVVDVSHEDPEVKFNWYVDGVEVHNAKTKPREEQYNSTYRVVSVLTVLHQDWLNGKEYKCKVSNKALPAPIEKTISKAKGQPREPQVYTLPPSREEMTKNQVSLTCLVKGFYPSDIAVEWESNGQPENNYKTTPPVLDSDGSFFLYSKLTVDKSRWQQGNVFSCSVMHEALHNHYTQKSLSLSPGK
light: DIQMTQTTSSLSASLGDRVTISCRASQDVRNFLNWFQQKPDGTVKLLIYFTSRLHSGVPSRFSGSGSGTDYSLTISNLEQEDIATYFCQQGNTLPPTFGGGTKLEIKRTVAAPSVFIFPPSDEQLKSGTASVVCLLNNFYPREAKVQWKVDNALQSGNSQESVTEQDSKDSTYSLSSTLTLSKADYEKHKVYACEVTHQGLSSPVTKSFNRGEC
notes: Human IgG1 LALA constant region, made in ExpiCHO-S cells; also called 10D10-hIgG1LALA
B2: human-murine chimeric 3B9 antibody (antibody, human IgG1, kappa, L234A L235A)
heavy: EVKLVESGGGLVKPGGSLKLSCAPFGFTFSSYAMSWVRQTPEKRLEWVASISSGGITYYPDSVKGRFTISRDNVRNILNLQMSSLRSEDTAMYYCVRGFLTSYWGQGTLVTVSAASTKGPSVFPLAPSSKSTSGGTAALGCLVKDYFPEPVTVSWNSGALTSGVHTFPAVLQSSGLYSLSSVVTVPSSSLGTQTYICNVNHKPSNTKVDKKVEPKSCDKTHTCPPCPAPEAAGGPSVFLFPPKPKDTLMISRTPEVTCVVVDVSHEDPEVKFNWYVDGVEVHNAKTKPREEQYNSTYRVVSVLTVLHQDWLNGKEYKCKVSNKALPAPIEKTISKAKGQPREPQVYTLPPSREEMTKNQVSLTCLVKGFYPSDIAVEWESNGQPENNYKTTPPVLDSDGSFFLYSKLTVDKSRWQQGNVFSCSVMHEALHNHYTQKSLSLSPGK
light: DVVMTQTPLTLSVTIGQPASISCKSSQSLLNSDGKTYLNWLLQRPGQSPKRLISLVSKLDSGVPDRFTGSGSGTDFTLKISRVEAEDLGVYYCWQGTHFWTFGGGTKLEIKRTVAAPSVFIFPPSDEQLKSGTASVVCLLNNFYPREAKVQWKVDNALQSGNSQESVTEQDSKDSTYSLSSTLTLSKADYEKHKVYACEVTHQGLSSPVTKSFNRGEC
notes: Human IgG1 LALA constant region, made in ExpiCHO-S cells; also called 3B9-hIgG1LALA
B3: murine 3B9 antibody (antibody, mouse IgG2a, kappa)
heavy: EVKLVESGGGLVKPGGSLKLSCAPFGFTFSSYAMSWVRQTPEKRLEWVASISSGGITYYPDSVKGRFTISRDNVRNILNLQMSSLRSEDTAMYYCVRGFLTSYWGQGTLVTVSAAKTTAPSVYPLAPVCGDTTGSSVTLGCLVKGYFPEPVTLTWNSGSLSSGVHTFPAVLQSDLYTLSSSVTVTSSTWPSQSITCNVAHPASSTKVDKKIEPRGPTIKPCPPCKCPAPNLLGGPSVFIFPPKIKDVLMISLSPIVTCVVVDVSEDDPDVQISWFVNNVEVHTAQTQTHREDYNSTLRVVSALPIQHQDWMSGKEFKCKVNNKDLPAPIERTISKPKGSVRAPQVYVLPPPEEEMTKKQVTLTCMVTDFMPEDIYVEWTNNGKTELNYKNTEPVLDSDGSYFMYSKLRVEKKNWVERNSYSCSVVHEGLHNHHTTKSFSRTPGK
light: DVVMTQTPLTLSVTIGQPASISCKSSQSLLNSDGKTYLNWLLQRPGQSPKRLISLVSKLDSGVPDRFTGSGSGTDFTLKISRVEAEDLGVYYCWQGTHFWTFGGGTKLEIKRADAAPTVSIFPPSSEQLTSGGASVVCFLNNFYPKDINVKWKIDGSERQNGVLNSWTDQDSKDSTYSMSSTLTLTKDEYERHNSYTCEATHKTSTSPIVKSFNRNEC
notes: Murine monoclonal antibody from a hybridoma
B4: murine 10D10 antibody (antibody, mouse IgG2a, kappa)
heavy: QVQLQQPGAELVRPGASVRLSCKASGYTFTTYWMHWVKLRPGQGFEWIGEINPGNGGTNYNEKFKRKATLTVDKSSSTAYMQLSSLTSEDSAVYYCAIRLRFALDYWGQGTSVTVSSAKTTAPSVYPLAPVCGDTTGSSVTLGCLVKGYFPEPVTLTWNSGSLSSGVHTFPAVLQSDLYTLSSSVTVTSSTWPSQSITCNVAHPASSTKVDKKIEPRGPTIKPCPPCKCPAPNLLGGPSVFIFPPKIKDVLMISLSPIVTCVVVDVSEDDPDVQISWFVNNVEVHTAQTQTHREDYNSTLRVVSALPIQHQDWMSGKEFKCKVNNKDLPAPIERTISKPKGSVRAPQVYVLPPPEEEMTKKQVTLTCMVTDFMPEDIYVEWTNNGKTELNYKNTEPVLDSDGSYFMYSKLRVEKKNWVERNSYSCSVVHEGLHNHHTTKSFSRTPGK
light: DIQMTQTTSSLSASLGDRVTISCRASQDVRNFLNWFQQKPDGTVKLLIYFTSRLHSGVPSRFSGSGSGTDYSLTISNLEQEDIATYFCQQGNTLPPTFGGGTKLEIKRADAAPTVSIFPPSSEQLTSGGASVVCFLNNFYPKDINVKWKIDGSERQNGVLNSWTDQDSKDSTYSMSSTLTLTKDEYERHNSYTCEATHKTSTSPIVKSFNRNEC
notes: as for B3
B5: murine 10E10 antibody (antibody, mouse IgG2a, kappa)
heavy: QVQLQQSGDDLVKPGASVKLSCKASGYTFTSYWINWIKQRPGQGLEWIGRVVPGSGRTYYNEIFKGKAILTVDSYSNTAYIQLRSVSSEDSAVYFCARVGGYWDYWGQGITLTVSSAKTTAPSVYPLAPVCGDTTGSSVTLGCLVKGYFPEPVTLTWNSGSLSSGVHTFPAVLQSDLYTLSSSVTVTSSTWPSQSITCNVAHPASSTKVDKKIEPRGPTIKPCPPCKCPAPNLLGGPSVFIFPPKIKDVLMISLSPIVTCVVVDVSEDDPDVQISWFVNNVEVHTAQTQTHREDYNSTLRVVSALPIQHQDWMSGKEFKCKVNNKDLPAPIERTISKPKGSVRAPQVYVLPPPEEEMTKKQVTLTCMVTDFMPEDIYVEWTNNGKTELNYKNTEPVLDSDGSYFMYSKLRVEKKNWVERNSYSCSVVHEGLHNHHTTKSFSRTPGK
light: QIVLSQSPAILSASPGEKVTMACRASSSVNYIHWYQQRPGSSPKPWIYATSSLASGVPARFSGSGSGTSYSLTISRVEAEDAATYYCQQWSSNPYTFGGGTKLEMKRADAAPTVSIFPPSSEQLTSGGASVVCFLNNFYPKDINVKWKIDGSERQNGVLNSWTDQDSKDSTYSMSSTLTLTKDEYERHNSYTCEATHKTSTSPIVKSFNRNEC
notes: as for B3
B6: human-murine chimeric 10E10 antibody (antibody, human IgG1, kappa, L234A L235A)
heavy: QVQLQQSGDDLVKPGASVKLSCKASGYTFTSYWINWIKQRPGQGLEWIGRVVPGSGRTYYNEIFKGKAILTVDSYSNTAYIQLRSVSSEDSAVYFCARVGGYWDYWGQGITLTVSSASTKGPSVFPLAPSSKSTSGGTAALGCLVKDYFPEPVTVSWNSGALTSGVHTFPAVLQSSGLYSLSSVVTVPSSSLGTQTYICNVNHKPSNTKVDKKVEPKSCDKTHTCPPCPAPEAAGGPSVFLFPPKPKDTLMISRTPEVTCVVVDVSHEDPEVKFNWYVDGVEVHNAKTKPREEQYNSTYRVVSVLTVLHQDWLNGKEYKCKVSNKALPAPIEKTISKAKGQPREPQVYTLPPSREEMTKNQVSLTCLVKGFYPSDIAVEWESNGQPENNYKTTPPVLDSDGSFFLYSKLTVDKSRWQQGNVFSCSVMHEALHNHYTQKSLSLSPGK
light: QIVLSQSPAILSASPGEKVTMACRASSSVNYIHWYQQRPGSSPKPWIYATSSLASGVPARFSGSGSGTSYSLTISRVEAEDAATYYCQQWSSNPYTFGGGTKLEMKRTVAAPSVFIFPPSDEQLKSGTASVVCLLNNFYPREAKVQWKVDNALQSGNSQESVTEQDSKDSTYSLSSTLTLSKADYEKHKVYACEVTHQGLSSPVTKSFNRGEC
notes: Human IgG1 LALA constant region, made in ExpiCHO-S cells; also called 10E10-hIgG1LALA
B7: humanized 10D10 antibody (antibody, human IgG1, kappa, L234A L235A, V domains shown)
VH: QVQLVQSGAEVKKPGASVKVSCKASGYTFTTYWMHWVKQAPGQGLEWIGEINPGNGGTNYNEKFKRRATMTVDKSISTAYMELSRLRSDDTAVYYCAIRLRFALDYWGQGTLVTVSS
VL: DIQMTQSPSSLSASVGDRVTITCRASQDVRNFLNWFQQKPGKAPKLLIYFTSRLHSGVPSRFSGSGSGTDYTFTISSLQPEDIATYFCQQGNTLPPTFGGGTKLEIKR
notes: human IgG1 LALA; also called h10D10-hIgG1LALA; humanized NKp46 antibody

target: T1, NKp46 on human peripheral blood mononuclear cells (human, UniProt O76036 22-304); assay: flow cytometry on PBMCs
T1 construct: also called human PBMCs
Procedure: (§1) The binding characteristics of the two human-murine chimeric NKp46 antibodies (i.e., human-murine chimeric 10D10 antibody and human-murine chimeric 3B9 antibody) prepared in Example 4 were detected using the flow cytometry assay. Human-murine chimeric NKp46 antibodies were added to human and cynomolgus monkey peripheral blood mononuclear cells. The signal intensity after antibody addition was used to determine the binding characteristics of the antibody to PBMCs. The specific steps were as follows:
(§2) Human and cynomolgus monkey peripheral blood mononuclear cells (PBMCs) were diluted to 2×10⁶ cells/mL with PBS and added to 1.5 mL EP tube at 100 μL/tube. Goat serum was added at 10 μL/tube and was blocked at 4° C. for 30 min. NKp46 antibodies at different concentrations gradients and the positive control antibody (hIgG1 LALA) were added and incubated at 4° C. for 30 min. The EP tube was added with 1 mL of PBS, and centrifuged at 3500 rpm at 4° C. for 5 min. The supernatant was discarded and the pellet was washed once more with PBS. After centrifugation, the supernatant was discarded, and the cells were resuspended with 100 IL/tube of PBS, and 0.1 μL/tube of Alexa-647 labeled rat anti-human IgG-Fc secondary antibody (Biolegend) and 0.5 μL/tube BV510-labeled CD16 antibody were added, and incubated at 4° C. in the dark for 30 min. The pellet was washed twice with PBS and the supernatant was discarded after centrifugation. The cells were resuspended with 200 μL/tube of PBS and detected by flow cytometry.

T1 sequence (O76036 22-304 Q82K limits assumed): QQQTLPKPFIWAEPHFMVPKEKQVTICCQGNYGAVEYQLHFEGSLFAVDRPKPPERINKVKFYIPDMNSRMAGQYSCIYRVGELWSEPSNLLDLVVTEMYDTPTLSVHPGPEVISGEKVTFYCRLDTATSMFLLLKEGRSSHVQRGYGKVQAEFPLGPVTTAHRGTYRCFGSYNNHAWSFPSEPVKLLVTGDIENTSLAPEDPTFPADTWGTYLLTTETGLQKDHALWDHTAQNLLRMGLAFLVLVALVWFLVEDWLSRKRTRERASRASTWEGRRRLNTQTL

Binder	binding result
B1	binds
B2	binds

target: T2, NKp46 on cynomolgus monkey peripheral blood mononuclear cells (cynomolgus monkey, UniProt Q95JB9 22-306); assay: flow cytometry on PBMCs
T2 construct: whole, on cells; also called cynomolgus monkey PBMCs
Procedure: as §1, §2

T2 sequence (Q95JB9 22-306): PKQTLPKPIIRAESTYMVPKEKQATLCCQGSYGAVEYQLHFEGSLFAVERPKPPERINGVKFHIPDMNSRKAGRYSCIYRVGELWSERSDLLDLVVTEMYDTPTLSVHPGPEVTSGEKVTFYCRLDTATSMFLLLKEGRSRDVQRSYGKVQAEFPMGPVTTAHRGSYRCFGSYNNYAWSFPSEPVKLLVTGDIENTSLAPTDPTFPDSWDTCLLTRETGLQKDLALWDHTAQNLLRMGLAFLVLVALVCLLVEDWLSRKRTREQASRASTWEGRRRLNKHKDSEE

Binder	binding result
B1	binds
B2	binds

target: T1, NKp46 on human peripheral blood …; assay: flow cytometry on human PBMCs
Procedure: The binding characteristics of the three NKp46 antibodies (10D10 antibody, 10E10 antibody, and 3B9 antibody) obtained in Example 1 were detected using the flow cytometry assay. Murine NKp46 antibodies were added to human peripheral blood mononuclear cells. The signal intensity after antibody addition was used to determine the binding characteristics of the antibody to PBMCs. The specific steps were as follows:
Human peripheral blood mononuclear cells (PBMCs) were diluted to 2×10⁶ cells/mL with PBS and added to a 1.5 mL EP tube at 100 μL/tube. Goat serum was added at […] and was blocked at 4° C. for 30 min. NKp46 antibodies at different concentrations gradients were added and incubated at 4° C. for 30 min. The EP tube was added with 1 mL of PBS, and centrifuged at 3500 rpm at 4° C. for 5 min. The supernatant was discarded and the pellet was washed once more with PBS. After centrifugation, the supernatant was discarded, and the cells were resuspended with 100 μL/tube of PBS, and 0.1 μL/tube of Alexa-647-labeled goat anti-mouse secondary antibody (Biolegend) and 0.5 μL/tube of FITC-labeled CD3 antibody were added, and incubated at 4° C. in the dark for 30 min. The pellet was washed twice with PBS and the supernatant was discarded after centrifugation. The cells were resuspended with 200 μL/tube of PBS and detected by flow cytometry.

Binder	binding result
B3	binds
B4	binds
B5	binds

target: T3, human NKp46-His fusion protein (human, UniProt O76036 22-258); assay: ELISA, NKp46-His coated, anti-human HRP
T3 construct: Bought from Acro; also called NKp46 extracellular region His tag fusion protein; not shown: His tag
T3 sequence (O76036 22-258 Q82K): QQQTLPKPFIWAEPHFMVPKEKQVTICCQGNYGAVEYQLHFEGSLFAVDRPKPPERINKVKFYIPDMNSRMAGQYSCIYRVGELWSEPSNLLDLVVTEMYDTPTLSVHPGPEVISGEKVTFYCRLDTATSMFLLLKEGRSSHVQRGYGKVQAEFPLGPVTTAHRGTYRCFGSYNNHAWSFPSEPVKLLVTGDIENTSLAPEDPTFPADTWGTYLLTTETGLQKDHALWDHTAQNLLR

Binder	binding result
B1	binds
B6	binds
B7	binds
B2	binds

target: T4, cynomolgus monkey-His fusion protein (cynomolgus monkey, UniProt Q95JB9 22-257); assay: ELISA, NKp46-His coated, anti-human HRP
T4 construct: extracellular domain; also called cynomolgus monkey NKp46; monkey NKp46; not shown: His tag
T4 sequence (Q95JB9 22-257): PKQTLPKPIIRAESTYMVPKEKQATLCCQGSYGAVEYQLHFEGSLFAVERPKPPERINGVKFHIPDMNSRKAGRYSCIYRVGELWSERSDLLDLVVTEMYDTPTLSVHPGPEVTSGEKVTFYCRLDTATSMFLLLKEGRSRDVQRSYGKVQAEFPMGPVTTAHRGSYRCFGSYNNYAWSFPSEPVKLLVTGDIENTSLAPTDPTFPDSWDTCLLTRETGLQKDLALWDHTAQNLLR

Binder	binding result
B1	binds
B6	binds
B7	binds
B2	binds

target: T3, human NKp46-His fusion protein; assay: ELISA, NKp46-His coated, anti-mouse HRP
From the text: (§3) The binding characteristics of the three NKp46 antibodies (10D10 antibody, 10E10 antibody, and 3B9 antibody) obtained in Example 1 were detected using the ELISA assay. The NKp46 extracellular region His tag fusion protein (NKp46-His) was coated into a 96-well plate. The signal intensity after antibody addition was used to determine the binding characteristics of the antibody to NKp46. The specific steps were as follows:
(§4) The human NKp46-His fusion protein (purchased from Acro) and cynomolgus monkey-His fusion protein (purchased from Acro) were diluted to 1 μg/mL with PBS buffer, added to a 96-well plate at 100 μL/well, and left overnight at 4° C. The PBS buffer solution was removed from the 96-well plate. The plate was washed 6 times with PBST (pH 7.2, PBS containing 0.1% Tween 20) buffer solution. PBS/10% BSA was added at 200 μL/well and incubated at 37° C. for 2 hours for blocking. The blocking solution was removed. The plate was washed 6 times with PBST. NKp46 antibody to be tested diluted to an appropriate concentration with PBST/0.05% BSA was added at 100 μL/well, and incubated for 1 h at 37° C. The reaction system was removed. The plate was washed 6 times with PBST. HRP (horseradish peroxidase)-labeled anti-mouse secondary antibody diluted with PBST/0.05% BSA was added at 100 μL/well and incubated for 1 h at 37° C. The plate was washed 6 times with PBST, and TMB (tetramethylbenzidine) was added at 80 μL/well. After 3 min of incubation at room temperature, 4M sulfuric acid was added at 80 μL/well to terminate the reaction. The absorbance at […] was read with a microplate reader.

Binder	binding result
B3	binds
B4	binds
B5	binds

target: T4, cynomolgus monkey-His fusion protein; assay: ELISA, NKp46-His coated, anti-mouse HRP
From the text: as §3, §4

Binder	binding result
B3	binds
B4	binds
B5	binds
